± gives the standard deviation of the averaged measurements.
B1: library; a variant is named by its letters at N, in order (parent)
chain: GCUGUCACCGAGAAACUGUGAAGUAUAUCUUAAACCUGGGCACUUAAAAGAUAUAUGGAGUUAGUAGUGCAACCUGCUCGGUCUGAUGAGUCCNNNNNNGGACGAAACAGC

Columns and labels:
[1] = variants of: B1; test: FACS-Seq fitted mean relative fluorescence mCherry/BFP without ligand (log10 relative fluorescence); HEK293T; ligand: cyclic di-GMP (c-di-GMP-II aptamer); higher = higher reporter protein expression; details: ligand present: no
How it was run: (§1)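 Fluorescence values are fitted normal means of bin counts along the mCherry/BFP axis. HEK293T libraries lentivirally carrying the ribozyme switch in an mCherry reporter, with an EF1α-BFP marker, were enriched, exposed to ligand or not for 48 h, and sorted into 6 bins. Genomic DNA per bin was PCR-amplified, barcoded and run on MiSeq. Means of log10(mCherry/BFP) were scaled to five spiked-in control ribozymes.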

[2] = variants of: B1; test: normalized RNA/DNA level without ligand (relative to sTRSVctl = 100) (log10 (% of sTRSVctl)); HEK293T; ligand: cyclic di-GMP (c-di-GMP-II aptamer); higher = less ribozyme self-cleavage, higher mRNA level; details: reporter: mCherry (pCS4076), ligand present: no
Protocol: (§2)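 Hammerhead (sTRSV) ribozyme switch libraries with a ligand aptamer grafted on stem I and a randomized N4-6 loop II, cloned into the 3' UTR of mCherry and transiently transfected into HEK293T cells; RNA-Seq 72 h post transfection with ligand added 1 h before transfection; RNA read count / plasmid DNA read count normalized to the non-cleaving sTRSVctl (x100), log10; sequences with >100 DNA reads. FACS-Seq: lentiviral library sorted into 6 bins after 48 h ligand, log-normal fit mean of mCherry/BFP scaled to controls. Printed sequences are partial switch sequences.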

[3] = variants of: B1; test: FACS-Seq fitted mean relative fluorescence mCherry/BFP with ligand (log10 relative fluorescence); HEK293T; ligand: cyclic di-GMP (c-di-GMP-II aptamer); ligand concentration (+) FACS-Seq: 1 mM; higher = higher reporter protein expression; details: ligand present: yes
How it was run: as §1

[4] = variants of: B1; test: normalized RNA/DNA level with ligand (relative to sTRSVctl = 100) (log10 (% of sTRSVctl)); HEK293T; ligand: cyclic di-GMP (c-di-GMP-II aptamer); ligand concentration (+) RNA-Seq: 1 mM; higher = less ribozyme self-cleavage, higher mRNA level; details: reporter: mCherry (pCS4076), ligand present: yes
Protocol: as §2

| Variant | FACS-Seq fitted mean (log10) [1] | normalized RNA/DNA level without ligand (log10) [2] | FACS-Seq fitted mean (log10) [3] | normalized RNA/DNA level with ligand (log10) [4] |
| --- | --- | --- | --- | --- |
| UCAUUU | -0.43 ± 0.036 | 1.637 ± 0.0076 | -0.178 ± 0.038 | 1.78 ± 0.14 |
| ACCUAA | -0.281 ± 0.029 | 1.57 ± 0.053 | 0.102 ± 0.075 | 1.76 ± 0.056 |
| ACCUAU | -0.223 ± 0.079 | 1.59 ± 0.055 | -0.113 ± 0.043 | 1.79 ± 0.11 |
| UCAGAU | -0.378 ± 0.029 | 1.49 ± 0.067 | -0.0266 ± 0.08 | 1.67 ± 0.078 |
| GCCGGU | 0.00404 ± 0.21 | 1.63 ± 0.03 | 0.3204 ± 0.0024 | 1.79 ± 0.087 |
| ACAUUA | -0.21 ± 0.0052 | 1.41 ± 0.087 | 0.0676 ± 0.069 | 1.62 ± 0.078 |
| ACAUUG | -0.689 ± 0.036 | 1.53 ± 0.024 | -0.401 ± 0.11 | 1.69 ± 0.13 |
| ACCCGC | -0.436 ± 0.15 | 1.75 ± 0.018 | -0.0881 ± 0.013 | 1.85 ± 0.099 |
| UCAGUG | -0.446 ± 0.02 | 1.669 ± 0.0062 | -0.142 ± 0.12 | 1.83 ± 0.15 |
| UCAGUC | -0.277 ± 0.12 | 1.697 ± 0.0098 | -0.0482 ± 0.1 | 1.85 ± 0.082 |
| UCAGUA | -0.6 ± 0.076 | 1.33 ± 0.2 | -0.299 ± 0.076 | 1.59 ± 0.082 |
| GCAUCU | -1.08 ± 0.08 | 1.614 ± 0.0091 | -0.903 ± 0.025 | 1.79 ± 0.094 |
| CCAUAA | -0.533 ± 0.16 | 1.44 ± 0.14 | -0.252 ± 0.0063 | 1.67 ± 0.079 |
| UCGCGA | -0.247 ± 0.071 | 1.668 ± 0.0022 | 0.0917 ± 0.061 | 1.8 ± 0.1 |
| UCAUGU | -0.749 ± 0.0092 | 1.63 ± 0.073 | -0.517 ± 0.028 | 1.82 ± 0.077 |
| UCAGCG | -0.403 ± 0.12 | 1.83 ± 0.077 | -0.141 ± 0.05 | 1.88 ± 0.099 |
| UCGCAA | -0.351 ± 0.038 | 1.47 ± 0.019 | -0.0919 ± 0.063 | 1.69 ± 0.18 |
| ACAGAA | -0.5622 ± 0.0028 | 1.29 ± 0.15 | -0.287 ± 0.057 | 1.47 ± 0.071 |

— the supplement of paper PMC6757056
